Assay results taken from paper PMC11461620 (Nature Communications, 2024).

Molecular target: the molecule itself
Assay: crystal structure

B1: β-barrel domain of E. coli BamA (residues 426–810) (domain or fragment)
chain: not shown
modifications: biotin (EZ-Link NHS-PEG4-Biotin, chemical) in the SPR experiment only
  binding result: binds
